Like-named read-outs stand apart in the source and are kept apart here. Ends that are not written are not given here.
Legend:
[1] = molecular target: T1, GRF receptors ([^125 I-Tyr^10 ]hGRF(1-44)NH2 binding sites in rat adenopituitary) (Rattus norvegicus, UniProt Q02644); assay: Competitive binding assay with [^125 I-Tyr^10 ]hGRF(1-44)NH2 on anterior pituitary homogenates
T1 construct: from tissue; host or cells: rat anterior pituitary homogenate
T1 sequence (Q02644 23-423 isoform Q02644-2 limits assumed): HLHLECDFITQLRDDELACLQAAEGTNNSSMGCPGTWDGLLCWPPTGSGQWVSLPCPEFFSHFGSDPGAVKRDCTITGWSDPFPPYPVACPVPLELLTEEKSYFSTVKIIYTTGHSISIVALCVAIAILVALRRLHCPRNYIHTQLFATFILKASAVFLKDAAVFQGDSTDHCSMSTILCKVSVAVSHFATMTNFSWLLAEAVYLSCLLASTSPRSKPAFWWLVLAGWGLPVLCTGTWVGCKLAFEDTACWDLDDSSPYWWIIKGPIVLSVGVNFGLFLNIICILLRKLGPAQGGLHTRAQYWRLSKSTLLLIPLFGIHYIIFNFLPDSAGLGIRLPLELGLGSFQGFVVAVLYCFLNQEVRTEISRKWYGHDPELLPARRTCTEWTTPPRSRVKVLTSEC
Procedure, shortened: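 Rat anterior pituitary homogenates (70 to 75 μg protein) in 50 mM Tris-HCl pH 7.4 with 5 mM EDTA, 5 mM MgCl2, 0.42% BSA were competed with 35-50 pM radioligand against analogues at 0-1000 nM. Non-specific binding defined with 2.4 μM rGRF(1-29)NH2; 60 min at 23° C, stopped by centrifugation, pellet gamma-counted. hGRF(1-29)NH2 run in each experiment as reference.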

[2] = molecular target: T2, GRF receptor (adenylate cyclase activity in rat adenopituitary) (Rattus norvegicus, UniProt Q02644); assay: Adenylate cyclase assay on anterior pituitary homogenates (cAMP by HPLC); assay type: biochemical; details: for IC50: 50% of maximal cAMP accumulation induced by 1 μM hGRF(1-29)NH2
T2 construct: from tissue; host or cells: rat anterior pituitary homogenate
T2 sequence (Q02644 23-423 isoform Q02644-2 limits assumed): T1 sequence (Q02644 23-423 isoform Q02644-2 limits assumed)
Description: The adenylate cyclase activity Nε-CF-[Lys^31 ]hGRF was performed on anterior pituitary homogenates as previously described (Lefrangois L. and Gaudreau P., J. Chromatogr., 1993, 619:116-120). Briefly, anterior pituitaries (pit.) were dissected out, rinsed and homogenized for 8 sec with a Micro Ultrasonic Cell Disrupter™, in ice-cold 20 mM Tris-HCl buffer (pH 7.5) containing 2 mM MgCl2 and 250 mM sucrose (1 pit./0.5 ml).
Samples of anterior pituitary homogenates (30-40 μg protein) were incubated in 1.5 ml Eppendorf™ tubes with 30 mM Tris-HCl, 5 mM MgCl2, 0.5 mM EGTA, containing 0.5 mM ATP, 1 mM IBMX, 10 μM GTP and an ATP regenerating system consisting of 2 mM creatine phosphate, 0.1 mg/ml creatine kinase and, 0.1 mg/ml myokinase in a final volume of 120 μl. Incubations were initiated by adding 20 μl of the homogenate to the reaction mixture which had previously been equilibrated at 37° C. for 2 min. The reactions were carried out for 8 min at 37° C. and stopped by heating the samples in boiling water for 4 min. Samples were centrifuged (12000 g, 5 min, 4° C.) and supernatants were filtered through 0.45 μm Millex HV4 ™ filters and transferred to autosampler vials for HPLC quantification of cAMP.

[3] = molecular target: T3, GRF receptor of rat adenopituitary (rat, UniProt Q02644-2); assay: displacement of 125I-Tyr10 hGRF(1-44)NH2 from rat anterior pituitary homogenate
T3 sequence: T1 sequence (Q02644 23-423 isoform Q02644-2 limits assumed)

[4] = molecular target: T3, GRF receptor of rat adenopituitary
[5] = molecular target: T3, GRF receptor of rat adenopituitary; remark: listed apart in the source
[6] = Table 11, mean±SD of 2 or mean±SE of 3 experiments for analogues, mean±SE of 11 for hGRF(1-29)NH2
[7] = Table 12, mean±SD of 2 or mean±SE of 3 to 6 experiments, 10 for hGRF(1-29)NH2

## CC[C@H](C)[C@H](NC(=O)[C@H](C)NC(=O)[C@H](CC(=O)O)NC(=O)[C@H](C)NC(=O)[C@@H](N)Cc1ccc(O)cc1)C(=O)N[C@@H](Cc1ccccc1)C(=O)N[C@H](C(=O)N[C@@H](CC(N)=O)C(=O)N[C@@H](CO)C(=O)N[C@@H](Cc1ccc(O)cc1)C(=O)N[C@@H](CCCNC(=N)N)C(=O)N[C@@H](CCCCN)C(=O)N[C@H](C(=O)N[C@@H](CC(C)C)C(=O)NCC(=O)N[C@@H](CCC(N)=O)C(=O)N[C@@H](CC(C)C)C(=O)N[C@@H](CO)C(=O)N[C@@H](C)C(=O)N[C@@H](CCCNC(=N)N)C(=O)N[C@@H](CCCCN)C(=O)N[C@@H](CC(C)C)C(=O)N[C@@H](CC(C)C)C(=O)N[C@@H](CCC(N)=O)C(=O)N[C@@H](CC(=O)O)C(=O)N[C@H](C(=O)N[C@@H](CCSC)C(=O)N[C@@H](CO)C(=O)N[C@@H](CCCNC(=N)N)C(N)=O)[C@@H](C)CC)C(C)C)[C@@H](C)O [hGRF(1-29)NH2, reference compound]
[1]; Table 4, mean±SD of 2 experiments in triplicate for analogues, mean±SE of 29 experiments for hGRF(1-29)NH2
  IC50: 2.67 ± 0.12 nM
[2]; Table 5, mean±SD of 2 experiments (analogue), mean±SE of 10 (hGRF(1-29)NH2)
  IC50: 36.7 ± 5.5 nM

## Ala^8,Ala^9,Ala^15,Ala^22 ! hGRF(1-29)NH2 (from UniProt P01286) (peptide)
[3]
  Relative affinity (%) against hGRF(1-29)NH2: 774%
[4]
  adenylate cyclase activity: EC50 of cAMP accumulation (column head prints IC50): 2.88 nM
  adenylate cyclase activity: Relative activity (%) against hGRF(1-29)NH2: 1270%

## Ala^8,Ala^15,Ala^22 ! hGRF(1-29)NH2 (from UniProt P01286) (peptide)
[3]
  Relative affinity (%) against hGRF(1-29)NH2: 960%
[4]
  adenylate cyclase activity: Relative activity (%) against hGRF(1-29)NH2: 1410%

## D-Ala^2,D-Tyr^10,D-Ala^15 ! hGRF(1-29)NH2 (from UniProt P01286) (peptide)
[3]
  Relative affinity (%) against hGRF(1-29)NH2: 18%
[4]
  adenylate cyclase activity: Relative activity (%) against hGRF(1-29)NH2: 21%

## D-Ala^2,D-Tyr^10,D-Ala^15,D-Lys^21 ! hGRF(1-29)NH2 (from UniProt P01286) (peptide)
[3]
  Relative affinity (%) against hGRF(1-29)NH2: 8%
[4]
  adenylate cyclase activity: Relative activity (%) against hGRF(1-29)NH2: 27%

## D-Ans^8,D-Leu^22 ! hGRF(1-29)NH2 (from UniProt P01286) (peptide)
[3]
  Relative affinity (%) against hGRF(1-29)NH2: 49%
[4]
  adenylate cyclase activity: Relative activity (%) against hGRF(1-29)NH2: 55%

## Lys^22 ! hGRF(1-29)NH2 (from UniProt P01286) (peptide)
[3]
  Relative affinity (%) against hGRF(1-29)NH2: 1040%
[4]
  adenylate cyclase activity: EC50 of cAMP accumulation (column head prints IC50): 2.63 nM
  adenylate cyclase activity: Relative activity (%) against hGRF(1-29)NH2: 1400%

## Nε-5-carboxyfluoresceinyl-Lys^31 !hGRF(1-44)NH2 (from UniProt P01286) (peptide)
[5]
  adenylate cyclase activity: EC50 of cAMP accumulation (column head prints IC50): 67 nM
  adenylate cyclase activity: Relative activity (%) against hGRF(1-29)NH2: 55%
[3]
  IC50: 3.65 nM
  Relative affinity (%) against hGRF(1-29)NH2: 73%

## YADAIFTAAYRKVLAQLSARKALQDIMSR-NH2 [Ala^8, Ala^9, Ala^15, Ala^22]
[1]; [6]
  IC50: 0.31 ± 0.14 nM
[2]; [7]
  IC50: 2.88 ± 1.01 nM

## YADAIFTASYRKVLAQLSARKALQDIMSR-NH2 [Ala^8, Ala^15, Ala^22]
[1]; [6]
  IC50: 0.25 ± 0.07 nM
[2]; [7]
  IC50: 2.6 ± 0.7 nM

## YADAIFTNSYRKVLGQLSARKKLQDIMSR-NH2 [Lys^22]
[1]; Table 11
  Hill coef.: 0.62 ± 0.06
[1]; [6]
  IC50: 0.23 ± 0.04 nM
[1]; Table 11, ratio IC50 of hGRF(1-29)NH2 /IC50 analogue
  Relative affinity: 1043 ± 181%
[1]; rat adenopituitary
  biological activity compared to that of native GRF: preserved or increased
[2]; [7]
  IC50: 2.63 ± 0.64 nM
[2]; Table 12, ratio EC50 of hGRF(1-29)NH2 /EC50 analogue
  Relative activity: 1395 ± 339%

From patent publication US5854216A, “Marker for growth hormone-releasing factor receptors” (Universite de Montreal, priority 1996, dated 1998)
